Data as given in patent US7919464B2, “Use of a peptide that interacts with αvβ3 integrin of endothelial cell” (Kyungpook National University Industry-Academic Cooperation …, priority 2003, dated 2011).

Columns and labels:
[1] = system: HUVECs cell membrane; test: Binding of biotin-βig-h3 to HUVECs surface (Western immunoblotting); parameters: species or system human; settings: biotin-βig-h3, 4° C. 5 hours
Experimental: To confirm that HUVECs adhesion that is mediated by βig-h3 depends on αvβ3 integrin, the present inventors tested the binding affinity of βig-h3 in the presence of an antibody that specifically blocks the function of the integrin. This binding assay was performed according to the method described by Maile, L. A., et al., J. Biol. Chem., […].
First, HUVECs were suspended in medium at a density of 1×10^5 cells/ml. 1 ml of the cell suspension was preincubated with anti-αvβ3 antibody (LM609) or anti-αvβ5 antibody (P1F6) at 37° C. for 30 minutes. Thereafter, the preincubated cells were incubated with biotinylated βig-h3 (hereinafter, referred to as “biotin-βig-h3”) in a serum-free medium containing 0.1% BSA at 4° C. for 5 hours. The biotin-βig-h3 was added at concentrations of 1×10^−10, 1×10^−9 and 5×10^−9 μm, respectively. Then, the cells were washed three times with PBS buffer (pH 7.4), and dissolved at 4° C. in ice-cold buffer A (10 mM Tris-Cl, pH 7.4, 150 mM NaCl, 1% Nonidet P-40, 1% sodium deoxycholate, 0.5% SDS, 0.02% sodium azide, 1 mM EDTA, 1 mM phenylmethylsulfonyl fluoride). The cell lysates were clarified by centrifugation at 13,000 rpm for 30 minutes at 4° C. Equal amounts of protein were then separated by SDS-PAGE, 8% gel. The amount of biotin-βig-h3 was determined by Western immuno-blotting. […]

[2] = system: β3/293 cells (HEK293 cells transfected with human β3 integrin expression vector); test: Adhesion of β3/293 cells to βig-h3 and its inhibition; type: cell-based; settings: plate coated with βig-h3
Experimental: (§1) To construct a human β3 integrin expression vector, RT-PCR was performed using a human placenta poly(A)^+ RNA as a template, thereby generating a 2.4-kb β3 cDNA (Chandrika, S. K. et al., J. Biol. Chem., 272:16390-16397, 1997). The amplified β3 cDNA was digested with HindIII/XbaI, and then cloned into the pcDNA3 vector (Invitrogen). The resulting vector was named “β3/pcDNA3”. Then, 1 μg of the β3/pcDNA3 vector was introduced into HEK293 cells (ATCC, catalog No. CRL 1573) using lipofectamin (Gibco). A control was introduced with a pcDNA3 vector containing no human β3 cDNA. Since all the vectors contain a G418 selection marker, the stable transfected cells were screened using 1 mg/ml of G418. The cell transfected with the β3/pcDNA3 vector was named “β3/293”, and the cell transfected with the pcDNA3 vector (control) was named “pc/293”. Each of the screened transfectants was incubated in DMEM (Dulbecco's Modified Eagle Medium) containing 10% FBS, streptomycin and penicillin. Then, cell adhesion assay was performed in the same manner as in Example 2.
In the present invention, to further confirm that βig-h3 mediates endothelial cell adhesion through the αvβ3 integrin, cell adhesion assay using antibodies that block the function of integrins was performed in the same manner as in Example 3-1. […]

[3] = system: pc/293 cells (HEK293 cells transfected with pcDNA3 vector); test: Adhesion of pc/293 cells to βig-h3; type: cell-based, human; settings: plate coated with βig-h3; control transfectant
Experimental: as §1

B1: βig-h3: recombinant human βig-h3 protein that expresses all of four fas-1 domains; biotinylated form used in binding assay (protein)
chain: YQRKICGKSTVISYECCPGYEKVPGEKGCPAALPLSNLYETLGVVGSTTTQLYTDRTEKLRPEMEGPGSFTIFAPSNEAWASLPAEVLDSLVSNVNIELLNALRYHMVGRRVLTDELKHGMTLTSMYQNSNIQIHHYPNGIVTVNCARLLKADHHATNGVVHLIDKVISTITNNIQQIIEIEDTFETLRAAVAASGLNTMLEGNGQYTLLAPTNEAFEKIPSETLNRILGDPEALRDLLNNHILKSAMCAEAIVAGLSVETLEGTTLEVGCSGDMLTINGKAIISNKDILATNGVIHYIDELLIPDSAKTLFELAAESDVSTAIDLFRQAGLGNHLSGSERLTLLAPLNSVFKDGTPPIDAHTRNLLRNHIIKDQLASKYLYHGQTLETLGGKKLRVFVYRNSLCIENSCIAAHDKRGRYGTLFTMDRVLTPPMGTVMDVLKGDNRFSMLVAAIQSAGLTETLNREGVYTVFAPTNEAFRALPPRERSRLLGDAKELANILKYHIGDEILVSGGIGALVRLKSLQGDKLEVSLKNNVVSVNKEPVAEPDIMATNGVVHVITNVLQPPANRPQERGDELADSALEI
For B1, the “binding of βig-h3 to HUVECs surface” value [1] was “bound to HUVECs surface in a dose-dependent manner”, the “adhesion of β3/293 cells to βig-h3” value [2] was “strongly adhered” and the “adhesion of pc/293 cells to βig-h3” value [3] was “not adhered”.
